Key:
hMLH1 promoter = assay: Bisulfite conversion and sequencing of the hMLH1 promoter region; format: cell-based, human; settings: untransfected HEK293T cells treated for 6 days
Excerpt: Casilio-mediated delivery of demethylation enzymes alters methylation state of targeted genomic locus. Evidence that the shown Casilio-ME-induced activation of hMLH1 transcription is a result of TET1-mediated cytosine demethylation within the targeted promoter region came from DNA sequencing of hMLH1 promoter after bisulfite conversion. Bisulfite treatment of genomic DNA deaminates unmethylated cytosines to produce uracils that are subsequently replicated as thymine. However, methylated cytosines are protected from conversion to uracils, thus allowing one to determine cytosine methylation states at single-nucleotide resolution by direct sequencing.
To assess changes in methylation states of CpG island within hMLH1 promoter region after Casilio-ME-mediated transcription activation, time course experiment were carried out where cells were collected 3, 4, 5, and 6 days post transfection, for analysis of cytosine methylation as well as transcription activation, and protein expression. HEK293T were transfected with Casilio-ME components that includes Ct-fusion PUFa-TET1 effector and a combination of 2 sgRNAs (RNA guides 3 and 7).
Cell culture and transfection. […]

SOX2 = SOX2 gene expression by quantitative reverse-transcription PCR after targeting Dnmt effectors to the SOX2 promoter; format: cell-based; settings: with dCas9 and sgRNA-PBS targeting SOX2 promoter; compared with dCas9 direct fusions
Protocol: Establishment of a dCas9-expressing cell line. The day prior to transfection, Lenti-X 293T cells were seeded into 6-well plates at 1.2 million cells per well. The cells were transfected with the supercoiled packaging plasmids (pLP1 (gag/pol), pLP2 (rev), and VSV-G (envelope)) and a dCas9 lentiviral expression plasmid through Lipofectamine 3000 reagent (Invitrogen). At 6 h posttransfection, medium was exchanged for fresh. At 24 h posttransfection, 2 ml of medium containing the lentivirus were collected and centrifuged for 10 minutes at 2,000 rpm to remove cellular debris. The supernatant was filtered utilizing a […] pore filter (Millipore), and the lentivirus was frozen at −80° C. until needed. HEK293T cells, seeded into a 12-well plate at 150,000 cells per well, were transduced with 500 μl of the dCas9 lentivirus in culture medium supplemented with 5 μg/ml polybrene for 12 hours, and subsequently selected with Blasticidin antibiotics on the third day post transduction.
Transfection. HEK293T, and HEK293T/dCas9 cell lines were seeded into 12-well plates at 150,000 cells per well. […] At 3 day post-transfection, the cells were sorted for GFP (sgRNA expression constructs are marked by GFP) with fluorescence-activated cell sorting (FACS) and re-plated into 12 or 24-well plates.
Quantitative reverse-transcription PCR. […]

TetO::tdTomato transgene = TetO::tdTomato transgene activation measured by FACS; format: cell-based; settings: for transgene activation with 15, 20, and 47 copies of PBS: with dCas9 and sgTetO-PBS, compared with 5-10 copies
Excerpt: In particular, to test whether appending PBS to the 3′ end of sgRNA affects sgRNA function, a series of modified Tet-targeting (sgTetO) or non-targeting control (sgControl) sgRNA were generated, with 0 copy, 5 copies, 15 copies, 25 copies, and 47 copies of the 8-mer Pumilio homologue domain-binding sequence (PBS) for PUF (3-2) (also simply referred to as PUFa) [PBS32 or PBSa: SEQ ID NO:8 (5′-UGUAUgUA-3′)], PUF(6-2/7-2) (also simply referred to as PUFb) [PBS6272 or PBSb: SEQ ID NO:9 (5′-UugAUAUA-3′)].
Cells were transfected with dCas9-VP64 with the different sgRNA scaffolds, and were analyzed by fluorescent-activated cell sorting (FACS) two days after transfection (FIG. 1B).
Fusions of PUF(3-2)::VP64 and PUF(6-2/7-2)::VP64, which interacts with sgRNA (sgRNA-PBS32) with 5′-UGUAUgUA-3′ binding sites and sgRNA-PBS6272 with 5′-UugAUAUA-3′ binding sites, respectively, were created, and their activity to turn on tdTomato expression in conjunction with dCas9 was tested. In addition, two additional pairs, PUFw-VP64 recognizing PBSw (5′-UGUAUAUA-3′) and PUFc-VP64 recognizing PBSc (5′-UugAUgUA-3′), were also constructed to test their ability to activate the same TetO::tdTomato expression in conjunction with dCas9 (FIG. 1D).
Cell Culture for Experiments. HEK293T cells were cultivated in Dulbecco's modified Eagle's medium (DMEM)(Sigma) with 10% fetal bovine serum (FBS)(Lonza), 4% Glutamax (Gibco), 1% Sodium Pyruvate (Gibco) and penicillin-streptomycin (Gibco). Incubator conditions were 37° C. and 5% CO2. For activation experiments, cells were seeded into 12-well plates at 100,000 cells per well the day before being transfected with 200 ng of dCas9 construct, 100 ng of modified sgRNA and 100 ng of PUF-fusion with Attractene transfection reagent (Qiagen). After transfection, cells were grown for 48 hrs and harvested for either RNA extraction or fluorescent-activated cell sorting (FACS). […]
Fluorescent-Activated Cell Sorting. […] Samples were analyzed on a FACScalibur flow cytometer using CellQuest Pro software (BD Bioscience). […] were collected in each run.

Molecule: Nc1ncn([C@@H]2O[C@H](CO)[C@@H](O)[C@H]2O)c(=O)n1 [5′azacytidine, 5-Azacytidine]
- bisulfite conversion frequency within hMLH1 promoter region (hMLH1 promoter): increased bisulfite conversion frequency on multiple CpG sites

B1: Dnmt3a-PUF: Dnmt3a catalytic domain fused to the N-terminus of PUFa (protein)
chain: MGPANHDQEFDPPKVYPPVPAEKRKPIRVLSLFDGIATGLLVLKDLGIQVDRYIASEVCEDSITVGMVRHQGKIMYVGDVRSVTQKHIQEWGPFDLVIGGSPCNDLSIVNPARKGLYEGTGRLFFEFYRLLHDARPKEGDDRPFFWLFENVVAMGVSDKRDISRFLESNPVMIDAKEVSAAHRARYFWGNLPGMNRPLASTVNDKLELQECLEHGRIAKFSKVRTITTRSNSIKQGKDQHFPVFMNEKEDILWCTEMERVFGFPVHYTDVSNMSRLARQRLLGRSWSVPVIRHLFAPLKEYFACVIDGGGGSDPKKKRKVDPKKKRKVDPKKKRKVGSTGSRNDGGGGSGGGGSGGGGSGRAGILPPKKKRKVSRGRSRLLEDFRNNRYPNLQLREIAGHIMEFSQDQHGSRFIQLKLERATPAERQLVFNEILQAAYQLMVDVFGNYVIQKFFEFGSLEQKLALAERIRGHVLSLALQMYGSRVIEKALEFIPSDQQNEMVRELDGHVLKCVKDQNGNHVVQKCIECVQPQSLQFIIDAFKGQVFALSTHPYGCRVIQRILEHCLPDQTLPILEELHQHTEQLVQDQYGNYVIQHVLEHGRPEDKSKIVAEIRGNVLVLSQHKFASNVVEKCVTHASRTERAVLIDEVCTMNDGPHSALYTMMKDQYANYVVQKMIDVAEPGQRKIVMHKIRPHIATLRKYTYGKHILAKLEKYYMKNGVDLGDPKKKRKVDPKKKRKVGGRGGGGSGGGGSGGGGSGPA
- repression of SOX2 gene expression (SOX2): more robust repression of SOX2 gene expression compared to direct fusions

B2: PUFa-VP64: PUF(3-2) domain with NLS fused to VP64 (protein)
chain: MGILPPKKKRKVSRGRSRLLEDFRNNRYPNLQLREIAGHIMEFSQDQHGSRFIQLKLERATPAERQLVFNEILQAAYQLMVDVFGNYVIQKFFEFGSLEQKLALAERIRGHVLSLALQMYGSRVIEKALEFIPSDQQNEMVRELDGHVLKCVKDQNGNHVVQKCIECVQPQSLQFIIDAFKGQVFALSTHPYGCRVIQRILEHCLPDQTLPILEELHQHTEQLVQDQYGNYVIQHVLEHGRPEDKSKIVAEIRGNVLVLSQHKFASNVVEKCVTHASRTERAVLIDEVCTMNDGPHSALYTMMKDQYANYVVQKMIDVAEPGQRKIVMHKIRPHIATLRKYTYGKHILAKLEKYYMKNGVDLGGPAGSGRADALDDFDLDMLGSDALDDFDLDMLGSDALDDFDLDMLGSDALDDFDLDMLYID
- activation with only one PBSa (TetO::tdTomato transgene; TetO-targeting sgRNA with 1 copy of PBSa): previously not observed
- transgene activation with 15, 20, and 47 copies of PBS (TetO::tdTomato transgene): slightly lower, albeit still substantial transgene activation

B3: PUFb-VP64: PUF(6-2/7-2) domain with NLS fused to VP64 (protein)
chain: MGILPPKKKRKVSRGRSRLLEDFRNNRYPNLQLREIAGHIMEFSQDQHGSRFIQLKLERATPAERQLVFNEILQAAYQLMVDVFGNYVIQKFFEFGSLEQKLALAERIRGHVLSLALQMYGCRVIQKALEFIPSDQQNEMVRELDGHVLKCVKDQNGNHVVQKCIECVQPQSLQFIIDAFKGQVFALSTHPYGCRVIQRILEHCLPDQTLPILEELHQHTEQLVQDQYGSYVIEHVLEHGRPEDKSKIVAEIRGNVLVLSQHKFANNVVQKCVTHASRTERAVLIDEVCTMNDGPHSALYTMMKDQYANYVVQKMIDVAEPGQRKIVMHKIRPHIATLRKYTYGKHILAKLEKYYMKNGVDLGGPAGSGRADALDDFDLDMLGSDALDDFDLDMLGSDALDDFDLDMLGSDALDDFDLDMLYID
- transgene activation with 15, 20, and 47 copies of PBS (TetO::tdTomato transgene): slightly lower, albeit still substantial transgene activation

Reference: patent US11780895B2, “Targeted DNA demethylation and methylation” (The Jackson Laboratory, priority 2016, dated 2023)
